Measured values published in publication PMC11110689.

Target: factor inhibiting HIF (FIH), V5-tagged (FIH-V5) (UniProt Q9NWT6)
Assay: immunoblot of a denaturation-resistant (SDS-PAGE) complex; cells co-transfected, 24 h at the indicated oxygen levels (18.5–1% O2), blots quantified, oxygen sensitivity calculated

UniProt Q9NWT6, sequence (Q9NWT6 whole entry): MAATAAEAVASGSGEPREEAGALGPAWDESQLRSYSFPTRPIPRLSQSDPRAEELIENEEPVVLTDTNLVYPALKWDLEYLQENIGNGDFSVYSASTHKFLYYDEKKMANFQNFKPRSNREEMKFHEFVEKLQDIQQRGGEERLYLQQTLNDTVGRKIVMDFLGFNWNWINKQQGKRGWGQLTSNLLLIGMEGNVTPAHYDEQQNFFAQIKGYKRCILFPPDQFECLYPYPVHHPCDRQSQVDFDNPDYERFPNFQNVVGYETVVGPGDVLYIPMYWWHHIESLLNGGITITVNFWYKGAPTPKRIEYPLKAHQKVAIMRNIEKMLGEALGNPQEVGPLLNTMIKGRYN

## NF-κB inhibitor β (IκBβ), FLAG-tagged (IκBβ-FLAG) (from UniProt Q15653 1-356) (natural protein)
  EC50 of the oxygen level for oxomer formation: 7.6 % O2
